Experimental data as given in paper PMC8421416, “Structure of the native pyruvate dehydrogenase complex reveals the mechanism of substrate insertion” (Nature Communications, 2021).
Each block holds one molecule with its values, some of them ahead of it.

B2: dihydrolipoyl transacetylase (E2p) of the E. coli pyruvate dehydrogenase complex (enzyme, E. coli K12, UniProt P06959 1-630, looked up)
chain: MAIEIKVPDIGADEVEITEILVKVGDKVEAEQSLITVEGDKASMEVPSPQAGIVKEIKVSVGDKTQTGALIMIFDSADGAADAAPAQAEEKKEAAPAAAPAAAAAKDVNVPDIGSDEVEVTEILVKVGDKVEAEQSLITVEGDKASMEVPAPFAGTVKEIKVNVGDKVSTGSLIMVFEVAGEAGAAAPAAKQEAAPAAAPAPAAGVKEVNVPDIGGDEVEVTEVMVKVGDKVAAEQSLITVEGDKASMEVPAPFAGVVKELKVNVGDKVKTGSLIMIFEVEGAAPAAAPAKQEAAAPAPAAKAEAPAAAPAAKAEGKSEFAENDAYVHATPLIRRLAREFGVNLAKVKGTGRKGRILREDVQAYVKEAIKRAEAAPAATGGGIPGMLPWPKVDFSKFGEIEEVELGRIQKISGANLSRNWVMIPHVTHFDKTDITELEAFRKQQNEEAAKRKLDVKITPVVFIMKAVAAALEQMPRFNSSLSEDGQRLTLKKYINIGVAVDTPNGLVVPVFKDVNKKGIIELSRELMTISKKARDGKLTAGEMQGGCFTISSIGGLGTTHFAPIVNAPEVAILGVSKSAMEPVWNGKEFVPRLMLPISLSFDHRVIDGADGARFITIINNTLSDIRRLVM
modifications: lipoylated residues K41, K144 and K245 (mass spectrometry); dihydrolipoyllysine modelled at K245 in the structure
notes: dihydrolipoyl transacetylase (E2p), aceF gene, E. coli strain K12; native full-length protein, modelled catalytic domain starts at P384; It was modelled as the innermost one (K245), from PDB 1qjo; also called dihydrolipoyl acyltransferase; E2p core; source: endogenous, E. coli K12; copies: 24

Columns and labels:
[1] = biological target: T1, dihydrolipoyl transacetylase (E2p) core of E. coli PDHc (Escherichia coli, UniProt P06959); test: cryo-EM structure, […] A; type: binding; conditions: covalent: moiety attached by amide bond to K245 of the lipoyl domain of the same protein (dihydrolipoyllysine), not the free amide; bound in E2p active site channel; no CoA; reduced state modelled, ox
T1 construct: gene aceF; native full-length E2p in native PDHc; catalytic domain modelled from P384 plus one lipoyl domain (averaged, modelled as innermost, K245); octahedral 24-mer
T1 sequence (P06959 2-630): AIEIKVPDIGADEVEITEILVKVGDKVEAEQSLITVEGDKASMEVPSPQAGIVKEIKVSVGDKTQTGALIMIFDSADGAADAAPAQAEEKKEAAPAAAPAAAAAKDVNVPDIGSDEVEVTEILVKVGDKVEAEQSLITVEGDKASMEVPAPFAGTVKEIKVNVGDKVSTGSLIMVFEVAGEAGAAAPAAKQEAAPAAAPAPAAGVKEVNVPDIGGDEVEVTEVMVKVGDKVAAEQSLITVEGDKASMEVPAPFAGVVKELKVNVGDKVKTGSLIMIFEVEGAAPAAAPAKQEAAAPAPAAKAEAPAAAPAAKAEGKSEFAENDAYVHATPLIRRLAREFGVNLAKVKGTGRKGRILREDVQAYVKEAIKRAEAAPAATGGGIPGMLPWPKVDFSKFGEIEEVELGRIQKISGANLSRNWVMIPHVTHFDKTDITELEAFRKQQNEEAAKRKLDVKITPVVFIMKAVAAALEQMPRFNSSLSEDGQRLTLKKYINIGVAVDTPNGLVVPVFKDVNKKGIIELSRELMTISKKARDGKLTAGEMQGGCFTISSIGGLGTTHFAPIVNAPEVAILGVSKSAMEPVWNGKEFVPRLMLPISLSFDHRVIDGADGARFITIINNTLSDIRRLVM

[2] = biological target: B2; test: cryo-EM structure; whole native PDHc (approx. 4.5 MDa) isolated from E. coli K12; low-resolution reconstruction without symmetry; 2D classes of the outer shell after subtraction of the E2p core; conditions: both partners purified
[3] = biological target: the molecule itself; test: cryo-EM structure; native E2p core of PDHc isolated from E. coli K12, resting state without substrates; 20 mM Hepes pH 7.5, 150 mM NaCl; O symmetry imposed, 3.16 Å
[4] = biological target: T2, pyruvate dehydrogenase (E1p) of the E. coli pyruvate dehydrogenase complex (E. coli K12 (endogenous), UniProt P0AFG8 1-887); test: cryo-EM structure; whole native PDHc (approx. 4.5 MDa) isolated from E. coli K12; low-resolution reconstruction without symmetry; 2D classes of the outer shell after subtraction of the E2p core; conditions: both partners purified
T2 construct: pyruvate dehydrogenase E1 component (E1p), E. coli K12, endogenous subunit of the native PDHc; source: endogenous, E. coli K12
T2 sequence (P0AFG8 whole entry, one chain of several): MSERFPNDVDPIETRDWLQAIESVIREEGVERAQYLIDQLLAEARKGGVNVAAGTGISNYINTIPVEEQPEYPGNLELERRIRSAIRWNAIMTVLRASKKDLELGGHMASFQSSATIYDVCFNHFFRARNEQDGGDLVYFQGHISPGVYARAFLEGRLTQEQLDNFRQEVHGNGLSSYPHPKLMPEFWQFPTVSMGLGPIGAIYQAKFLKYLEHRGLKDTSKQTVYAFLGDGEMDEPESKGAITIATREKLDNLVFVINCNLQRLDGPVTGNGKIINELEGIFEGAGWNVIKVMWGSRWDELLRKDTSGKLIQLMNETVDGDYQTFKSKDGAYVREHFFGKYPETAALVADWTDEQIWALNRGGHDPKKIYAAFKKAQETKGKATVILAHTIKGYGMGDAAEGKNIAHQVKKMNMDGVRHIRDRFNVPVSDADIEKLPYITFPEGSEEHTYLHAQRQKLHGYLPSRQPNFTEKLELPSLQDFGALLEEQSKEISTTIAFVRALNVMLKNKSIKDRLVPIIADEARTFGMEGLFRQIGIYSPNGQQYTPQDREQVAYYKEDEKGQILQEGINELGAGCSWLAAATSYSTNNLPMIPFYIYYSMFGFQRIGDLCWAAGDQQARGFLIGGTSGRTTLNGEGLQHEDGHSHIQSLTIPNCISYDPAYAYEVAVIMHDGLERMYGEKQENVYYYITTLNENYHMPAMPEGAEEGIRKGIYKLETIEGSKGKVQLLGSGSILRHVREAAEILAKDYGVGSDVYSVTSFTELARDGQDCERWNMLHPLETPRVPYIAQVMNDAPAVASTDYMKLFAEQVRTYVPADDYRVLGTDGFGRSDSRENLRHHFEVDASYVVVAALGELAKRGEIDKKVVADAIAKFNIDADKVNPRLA

Molecule: NC(=O)CCCC[C@@H](S)CCS [dihydrolipoamide]
- cryo-EM structure, 3.16 A [1]: we modeled the prosthetic group as dihydrolipoamide, i.e., the product of the E2p-catalyzed reaction

- binding result [2]: binds
B1: dihydrolipoyl dehydrogenase (E3) of the E. coli pyruvate dehydrogenase complex (enzyme, E. coli K12 (endogenous), UniProt P0A9P0 1-474, looked up)
chain: MSTEIKTQVVVLGAGPAGYSAAFRCADLGLETVIVERYNTLGGVCLNVGCIPSKALLHVAKVIEEAKALAEHGIVFGEPKTDIDKIRTWKEKVINQLTGGLAGMAKGRKVKVVNGLGKFTGANTLEVEGENGKTVINFDNAIIAAGSRPIQLPFIPHEDPRIWDSTDALELKEVPERLLVMGGGIIGLEMGTVYHALGSQIDVVEMFDQVIPAADKDIVKVFTKRISKKFNLMLETKVTAVEAKEDGIYVTMEGKKAPAEPQRYDAVLVAIGRVPNGKNLDAGKAGVEVDDRGFIRVDKQLRTNVPHIFAIGDIVGQPMLAHKGVHEGHVAAEVIAGKKHYFDPKVIPSIAYTEPEVAWVGLTEKEAKEKGISYETATFPWAASGRAIASDCADGMTKLIFDKESHRVIGGAIVGTNGGELLGEIGLAIEMGCDAEDIALTIHAHPTLHESVGLAAEVFEGSITDLPNPKAKKK
notes: dihydrolipoyl dehydrogenase (E3), E. coli K12, endogenous subunit of the native PDHc; source: endogenous, E. coli K12

Molecule: B2
- stoichiometry N [3]: 24
- binding result [4]: binds
